Measurements: patent CN1649900A
Values belong to the binder of their own block, whether it stands above or below them. Where no end group is shown, it is not given here. [ ]: non-standard residue; d: D form. sY = N[C@@H](Cc1ccc(OS(=O)(=O)O)cc1)C(=O)O

Legend:
[1] = target: Y1 scFv (human single-chain Fv antibody fragment Y1); assay: competition ELISA on glycocalicin, peptide taken as 25μM
[2] = target: Y1 scFv (human single-chain Fv antibody fragment Y1); assay: competition ELISA on glycocalicin; first of three values, peptide taken as 200μM
[3] = target: Y1 scFv (human single-chain Fv antibody fragment Y1); assay: competition ELISA on glycocalicin, peptide taken as 2.5μM
[4] = target: Y1 scFv (human single-chain Fv antibody fragment Y1); assay: competition FACS on washed platelets; peptide 200μM
[5] = target: Y1 scFv (human single-chain Fv antibody fragment Y1); assay: competition FACS on washed platelets; peptide 2.5μM
[6] = target: Y1 scFv (human single-chain Fv antibody fragment Y1); assay: competition ELISA on glycocalicin; peptide 0.5μM
[7] = target: Y1 scFv (human single-chain Fv antibody fragment Y1); assay: competition ELISA on glycocalicin; peptide 25μM
[8] = target: Y1 scFv (human single-chain Fv antibody fragment Y1); assay: competition ELISA on glycocalicin; peptide 200μM
[9] = target: Y1 scFv (human single-chain Fv antibody fragment Y1); assay: competition ELISA on glycocalicin; peptide 2.5μM
[10] = target: Y1 scFv (human single-chain Fv antibody fragment Y1); assay: competition ELISA, Y1 scFv on glycocalicin
[11] = target: human platelet glycoprotein Ibα (GPIbα) on platelets or in platelet lysates (human) (UniProt P07359); assay: cell-based or functional assay
[12] = target: human platelet glycoprotein Ibα (GPIbα) on platelets or in platelet lysates (human) (UniProt P07359); assay: FACS on washed platelets, control without peptide
[13] = target: glycocalicin purified from human platelets (soluble extracellular fragment of GPIbα) (human) (UniProt P07359); assay: ELISA on glycocalicin
[14] = target: Y1 scFv (human single-chain Fv antibody fragment Y1); assay: competition ELISA on glycocalicin; peptide 2.5μM; conditions: remark: other sources report otherwise
[15] = target: Y1 scFv (human single-chain Fv antibody fragment Y1); assay: competition ELISA on glycocalicin; peptide 0.5μM; conditions: remark: other sources report otherwise
[16] = target: Y1 scFv (human single-chain Fv antibody fragment Y1); assay: competition FACS on washed platelets; peptide 200μM; conditions: remark: other sources report otherwise
[17] = target: Y1 scFv (human single-chain Fv antibody fragment Y1); assay: competition ELISA on glycocalicin; peptide 25μM; conditions: remark: other sources report otherwise
[18] = target: Y1 scFv (human single-chain Fv antibody fragment Y1); assay: competition ELISA on glycocalicin; peptide 200μM; conditions: remark: other sources report otherwise
[19] = target: Y1 scFv (human single-chain Fv antibody fragment Y1); assay: competition FACS on washed platelets; peptide 2.5μM; conditions: remark: other sources report otherwise

residual binding of Y1 (% of baseline) [1]: 67%
residual binding of Y1 (% of baseline) [2]: 21%
residual binding of Y1 (% of baseline) [3]: 80%
residual binding of Y1 (% of baseline, Geo mean) [4]: 26%
residual binding of Y1 (% of baseline, Geo mean) [5]: 82%
Binder: GDEGDTDL[sY]D[sY][sY]P [P-3-S, sulfated synthetic peptide of GPIbα residues 268-280]

residual binding of Y1 (% of baseline) [6]: 89%
residual binding of Y1 (% of baseline) [7]: 25%
residual binding of Y1 (% of baseline) [8]: 0%
residual binding of Y1 (% of baseline) [9]: 62%
residual binding of Y1 (% of baseline, Geo mean) [4]: 5%
residual binding of Y1 (% of baseline, Geo mean) [5]: 41%
Binder: GDEGDTDL[sY]D[sY][sY]PEEDTE [P-1-S, sulfated synthetic peptide of GPIbα residues 268-285]

peptide concentration at which Y1 binding is effectively inhibited [10]: 100 µM
Binder: QATE[sY]EYLDYDFLPETE [P-Y*YY, PSGL-1 N-terminal peptide sulfated on the first tyrosine]

residual binding of Y1 (% of baseline) [6]: 121%
residual binding of Y1 (% of baseline) [7]: 89%
residual binding of Y1 (% of baseline) [8]: 85%
residual binding of Y1 (% of baseline) [9]: 100%
residual binding of Y1 (% of baseline, Geo mean) [4]: 119%
residual binding of Y1 (% of baseline, Geo mean) [5]: 96%
Binder: REEGRQHFFLLEGRSSYS [EGR negative control peptide]

凝集作用%; washed platelets, ristocetin; Y1 scFv 12.5微克/毫升 [11]: 67%
凝集作用%; washed platelets, ristocetin; Y1 scFv 14微克/毫升 [11]: 92%
凝集作用%; washed platelets, ristocetin; Y1 scFv 25微克/毫升 [11]: 23%
抑制百分比%; platelet-rich plasma, ristocetin; Y1 scFv25微克/毫升 [11]: 13%
抑制百分比%; ristocetin-induced agglutination of washed platelets; Y1 scFv 25微克/毫升 [11]: 77%
抑制百分比%; ristocetin-induced aggregation in platelet-rich plasma; Y1 scFv50微克/毫升 [11]: 80%
抑制百分比%; washed platelets, ristocetin; Y1 scFv 12.5微克/毫升 [11]: 33%
抑制百分比%; washed platelets, ristocetin; Y1 scFv 14微克/毫升 [11]: 8%
聚集作用%; platelet-rich plasma, ristocetin; Y1 scFv25微克/毫升 [11]: 87%
聚集作用%; platelet-rich plasma, ristocetin; Y1 scFv50微克/毫升 [11]: 20%
residual binding of Y1 (% of baseline, Geo mean) [12]: 114%
B1: Y1 scFv (human single-chain Fv antibody fragment Y1) (scFv)
scFv: EVQLVESGGGVVRPGGSLRLSCAASGFTFDDYGMSWVRQAPGKGLEWVSGINWNGGSTGYADSVKGRFTISRDNAKNSLYLQMNSLRAEDTAVYYCARMRAPVIWGQGTLVTVSRGGGGSGGGGSGGGGSSELTQDPAVSVALGQTVRITCQGDSLRSYYASWYQQKPGQAPVLVIYGKNNRPSGIPDRFSGSSSGNTASLTITGAQAEDEADYYCNSRDSSGNHVVFGGGTKLTVLGAAAEQKLISEEDLNGAA

concentration needed to reach 0.8 OD units [13]: 12.8 微克/毫升
B2: CONY1, Y1 scFv monomer in which the myc tag is deleted or replaced by Lys-Ala-Lys (KAK) (scFv)
scFv: EVQLVESGGGVVRPGGSLRLSCAASGFTFDDYGMSWVRQAPGKGLEWVSGINWNGGSTGYADSVKGRFTISRDNAKNSLYLQMNSLRAEDTAVYYCARMRAPVIWGQGTLVTVSRGGGGSGGGGSGGGGSSELTQDPAVSVALGQTVRITCQGDSLRSYYASWYQQKPGQAPVLVIYGKNNRPSGIPDRFSGSSSGNTASLTITGAQAEDEADYYCNSRDSSGNHVVFGGGTKLTVLG

residual binding of Y1 (% of baseline) [14]: 94%
residual binding of Y1 (% of baseline) [15]: 88%
residual binding of Y1 (% of baseline, Geo mean) [16]: 87%
residual binding of Y1 (% of baseline) [17]: 71%
residual binding of Y1 (% of baseline) [18]: 61%
residual binding of Y1 (% of baseline, Geo mean) [19]: 106%
Binder: GDEGDTDLYDYYPEEDTE [P-1, non-sulfated synthetic peptide of GPIbα residues 268-285]

peptide concentration at which Y1 binding is effectively inhibited [10]: 1 µM
Binder: QATEYEYLD[sY]DFLPETE [P-YYY*, PSGL-1 N-terminal peptide sulfated on the third tyrosine]

residual binding of Y1 (% of baseline) [1]: 52%
residual binding of Y1 (% of baseline) [2]: 15%
residual binding of Y1 (% of baseline) [3]: 78%
residual binding of Y1 (% of baseline, Geo mean) [4]: 7%
residual binding of Y1 (% of baseline, Geo mean) [5]: 61%
Binder: TDL[sY]D[sY][sY]PEEDTE [P-2-S, sulfated synthetic peptide of GPIbα residues 273-285]
